From the nanobody polyreactivity screen of Harvey et al. (2022)

Experiment: yeast display, Sf9 membrane polyspecificity reagent, FACS + sequencing; frameworks hold sequencing errors
In short: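 Using colony PCR, genes from sorted yeast display clones were amplified, then sequenced on MiSeq at 2 × 250 and filtered by CDR length. The clones had been stained with 10% biotinylated, detergent-solubilized Sf9 membrane reagent for 1 hour at 4 °C and sorted by FACS into low and high (top ~1%) gates on anti-HA and streptavidin fluorescence. Polyreactivity labels come from the gate of origin.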
For “QVQLVESGGGLVQAGGSLRLSCAASGIIFRYYAMGWYRQAPGKEREFVAAINYSGGSTYYADSVKGRFTISRDNAKYSVYLLMNSLKPEDTAVYYCAARSYTYTAPIYGYWGQGTQVTVSS”, the “polyreactivity (PSR sort gate)” value was “high polyreactivity”.
For “QVQLVESGGGLVQAGGSLRLSCAASGRTFLLNAMGWYRQAPGKERELVAAITRSGVITYYADSVKGRFTISRDNAKNTVYLQMNSLKPEDTAVYYCAAQLRYSYLRPSYYYWGQGTQVTVSS”, the “polyreactivity (PSR sort gate)” value was “high polyreactivity”.
With “QVQLVESGGGLVQAGGSLRLSCAASGSTFKFNDMGWYRQAPGKERELVAAISRGGRTNYADSVKGRFTISRDNAKNTVYLQMNSLKPEDTAVYYCAADYSTLYKYDYWGQGTQVTVSS” the “polyreactivity (PSR sort gate)” value was “low polyreactivity”.
For “QVQLVESGGGLVQAGGSLRLSCAASGRIFNSNTMGWYRQAPGKERELVAAITYSGGSTYYADSVKGRFTISRDNAKNTVYLQMNSLNPEDTAVYYCAADFWEYDGPWYANDYDSWGQGTQVTVSS”, the “polyreactivity (PSR sort gate)” value was “low polyreactivity”.
For “QVQLVESGGGLVQAGGSLRLSCAASGFIFPVNAMGWYRQAAGKERELVAAITSSGGDTYYADSVKGRFTISRDNAKNTVYLQMNSLKPEDTAVYYCAAEYTQEQEDYDYWGQGTQLTVSS”, the “polyreactivity (PSR sort gate)” value was “low polyreactivity”.
In the case of “QVQLVESGGGLVQAGGSLRLSCAASGSIFTYYAMGWYRQAPGKERELVAAISRRGTRTYYADSVKGRFTISRDNAKNTVYLQMNSLKPEDTAVYYCAAEYTETGTAKMEYWGQGTQVTVSS”, the “polyreactivity (PSR sort gate)” value is reported as “high polyreactivity”.
With “QVQLVESGGGLVQAGGSLRLSCAASGSTFIYYAMGWYRQAPGKERELVAAITSAGRTNYADSVKGRFTISRDNAKNTVYLQMNSLKPEDTAVYYCAAAYRPRKHHYDYWGQGTQVTVSS” the “polyreactivity (PSR sort gate)” value was “high polyreactivity”.
For “QVQLVESGVGLVQAGGSLRLICAASGSTFAYNDMGWYRQAPGKERELVAAINGGGGSTYYGDSVKGRFTISRDNAKNTVYLHMNSLKPEVTAVYYCAKGEWSYVDSFGPYYDLVYWGQGTQVTVSS”, the “polyreactivity (PSR sort gate)” value was “low polyreactivity”.
With “QGQHVESGGGLVQAGGSLPLSCAASGFIFNLYAMGWSRQAPGKERELVAAISSGGGTSYADSVKGRFTISRDNAKNTVYLQMNTLKPEDTADYYCAARAWYRVSAYDYWGQGTQVTVSS” the “polyreactivity (PSR sort gate)” value was “high polyreactivity”.
For “QVQLVESGGGLVQAGGSLRLSCAASGRTLRGYAMGWYRQAPGKERELVAAISKGGGSTFYADSVKGRFTISRDNAKNTVYLQMNSLKPEDTAVYYCAADYYSYTYYLDFDYWGQGTQVTVSS”, the “polyreactivity (PSR sort gate)” value was “high polyreactivity”.
In the case of “QVQLVESGGGLVQAGGSLRLSCAASGSTSSPYAMGWYRQAPGKERELVAAITSGGSTNYADSVKGRFTISRDNAKNTVYLEMNSLKPEDTAVYYCATRIYGWSFGSWYKYDYRGQGTQVTVSS”, the “polyreactivity (PSR sort gate)” value is reported as “low polyreactivity”.
With “QVQLVESGGGLVQAGGSLRLTCAASGRTLGGYTMGWSRQAPGKERELVAAITTGGSTNYADSVKGRFTISRDNAKNTVYLQMNSLKPEDTAVYYCATELVFDKRYWYDYWGQGTQVTVSS” the “polyreactivity (PSR sort gate)” value was “low polyreactivity”.
With “QVQLVESGGGLVQAGGSLRLSCAASGFTFVGNTMGWYRQAPGKERELVAAIRGRDGRTYYADSVKGRFTISRDNEKNTVYLQMNSLKPEDTAVYYCNVDVKYSVRSEFDYWGQGTQVTVSS” the “polyreactivity (PSR sort gate)” value was “low polyreactivity”.
In the case of “QDQLVESGGGLVQAGGSLRLSCAASGLIFGGYDMGWYRQAPGKERELVAAISCDDGDTYYADSVKGRFTISRDNAKNTVYLQMNSLKPEDTAVYYCAAESLSGAHGYWGQGTQVTVSS”, the “polyreactivity (PSR sort gate)” value is reported as “low polyreactivity”.
With “QVQLVESRGGLVQAGGSLRLSCAASRFYTMGWYRQAPGKERELVAAISWSGGDTYYADSVKGRFTISRDNAKNTVYLQMNSLKPDDTAVYYCAKKTIGSYVHEPYYYWGQGTQVTVSS” the “polyreactivity (PSR sort gate)” value was “low polyreactivity”.
In the case of “QVQLVESGGGLVQAGGSLRLSCAASGSTFTDNAMGWYRQAPGKERELVAAITSGSSTNYADSVKGRFTISRDNAKNTVYLQMNSLKPEDTAVYYCATCQEPQYSTGDYWGQGTQVTVSS”, the “polyreactivity (PSR sort gate)” value is reported as “low polyreactivity”.
With “QVQLVESGGGLVQAGGSLRLSCAASGSTFSIYGMGWYRQAPGKERELVAVITARDGSTYYADSVKGRFTISRDNAKNTVYLQMNSLKPEDTAVYYCAADIGPRYDSWGQGTQVTVSS” the “polyreactivity (PSR sort gate)” value was “high polyreactivity”.
With “QVQLVESGGGLVQAGGSLRLSCAASGSIFPVNAMGWYRQAPGKERELVAAISEGSTSTYYADSVKGRFTISRDNAKNTVYLQMNSLKPEDTAVYYCAADYDTGYEYWGQGTQVTVSS” the “polyreactivity (PSR sort gate)” value was “low polyreactivity”.
With “QVQLVESGGGLVQAGGSLRLSCAASGRIFYSYAMGWYRQAPGKERELVAVITYRGGRTYYADSVKGRFTISRDNAKNTVYLQMNSLKPEDTAVYYCARDPQFYLHTVTDGAYNYWGQGTQVTVSS” the “polyreactivity (PSR sort gate)” value was “low polyreactivity”.
For “QVQLVESGGGLVQAGGSLRLSCAASGSILGYYAMGWYRQAPGKERELVAAITWRGGRTYYADSVKGRFTISRDNAMNTVYLQMNSLKPEDTAVYYCAKVPSGYKGYDYWGQGTQVTVSS”, the “polyreactivity (PSR sort gate)” value was “high polyreactivity”.
With “QVQLVESGGGLVQAGGSLRLSCAASGYILDVYAMGWYRQAHGKERELVAVITWRTDSTYYADSVKGRFTISRDNAKNTVYLQMNSLKPEDTAVYYCAKVLRLSKYRYYYWGQGTQVTVSS” the “polyreactivity (PSR sort gate)” value was “high polyreactivity”.
For “QVQLVESGGGLVQAGGSLRLSCAPSGFIFHKYVMGWYRQAPGKERELVAAISRSGASTYYADSVKGRFTISRDNAKNTVYLQMNSLKPEDTAVYYCNAQPGKWEYDYWGQGTQVTVSS”, the “polyreactivity (PSR sort gate)” value was “high polyreactivity”.
With “QVQLVESGGGLVQAGGSLRLSCAASGRIFYYYAMGWYRQAPGKEREIVAAISASGGSTYADSVKGRFTISRDNAKNTVYLQMNSLKPEDTAVYYCATVYYYTYAWLDLYGGYTFEYWGQGTQVTVSS” the “polyreactivity (PSR sort gate)” value was “low polyreactivity”.
With “QVQLVESGGGLVQAGGSLRLSCAASGSIFNGYAMGWYRQAPGKERELVAAISWNGGRTYYADSVKGRFTISRDNAKNTVYLQMNSLKPEDTAVYYCNKVSGYDVDYWGQGTQVTVSS” the “polyreactivity (PSR sort gate)” value was “high polyreactivity”.
With “QVQLVESGGGLVQAGGSLRLTCAASGSIFLSYAMGWYRQPPGKDRELVAAISGGVNTYYADSVKGSFTISRDNAKNTVYLQMNSLKPEDTAVYYCYAVPHIYAEGTAYNYWGQGTQVTVSS” the “polyreactivity (PSR sort gate)” value was “low polyreactivity”.
With “QVQLVESGGGLVQARGSLRLSCAASGSTFDSNAMGCYRQAPGKERELVAAITRGGSTNYADSVKGRFTISRDNAKNTVYLQMNSLNPEDTAVYYCAAASETLGSATYGSGYDYWGQGTQVTVSS” the “polyreactivity (PSR sort gate)” value was “low polyreactivity”.
For “QVQLVESGGGLVQAGGSLRLSCAASARIFGWNAMGWYRQAPGKERELVAAISWRGGSTYYADSVKGRFTISRDNAKNTVYLQMNSLKPEDTAVYYCNALYTRYVSQWFGYWGQGTQVTVSS”, the “polyreactivity (PSR sort gate)” value was “high polyreactivity”.
In the case of “QVQLVESGRGLVQAGASLRLSCAASGSTFYVNAMGWYRQAPGKERELVAAITSTGTTHYADSVKGRFTISRDNAKNTVYLQMNSLKPEDTAVYYCAAYSRYQSRRYYYWGQGTQVTVSS”, the “polyreactivity (PSR sort gate)” value is reported as “high polyreactivity”.
In the case of “QVQLVESGGGLVQAGGSLRLTCAASGLTFAGYAMGWYRQAPGKERELVAYITTSGGSTHYADSVKGRFTISRDNAKNTVYLQMNSLKPEDTAVYYCAAEGYPGDNELIGAFDYWGQGTQVTVSS”, the “polyreactivity (PSR sort gate)” value is reported as “low polyreactivity”.
In the case of “QVQLVESGGGLVQAGGSLRLSCAASGRTFVQYVMGRYRQAPGKERELVAAITSSGGSTYADSVKGRFTISRDNAKNTVYLQMNSLKPEDTAVYYSAADYLDGVGDVEHDYWGQGTQVTVSS”, the “polyreactivity (PSR sort gate)” value is reported as “low polyreactivity”.
In the case of “QDQLVDSGGGIVQAGGILSYSCDPSGSNVRYNAMGWYRQAPGKERELVAGIRGSGGITYYADSVKGRFTISRDNAKNTVYLQMNSLKPEDSAVYYCAADVVVCSYQEDHSWGQGTQVTESS”, the “polyreactivity (PSR sort gate)” value is reported as “low polyreactivity”.
In the case of “QVQLVESGGGLVQAGGSLRLICAASGITFTGYAMGWYREAPGKEREVVAPISKRGARTYYADSVKGRFTISRDNAKHTVYVQMNSLQPEDTAVYYCAVRRWGYWTGYRGLDYDYWGQGTQVTVSS”, the “polyreactivity (PSR sort gate)” value is reported as “high polyreactivity”.
For “QVQLVESGGGLVQAGGSLRLSCAASGSTFYYYAMGWYRQAPGKEREFVAAITFRGGSTYYADSVKGRFTISRDNAKNTVYLQMNSLKPEDTAVYYCAAKPPFRNYVRYDYWGQGTQVTVSS”, the “polyreactivity (PSR sort gate)” value was “high polyreactivity”.
For “QVQLVESGGGLVQAGGSLRLSCAASGSIFDYNAMGWYRQATGKERELVAAISSDGSTYYADSVKGRFTISRDNAKNSVYLQMNSLKPEDTAVYYCAADSVYSWSDYWGQGTQVTVSS”, the “polyreactivity (PSR sort gate)” value was “low polyreactivity”.
For “QVQLVESLGGLVQAGGSLRLSCAASGFTFGAYAMGLYRPAPGKERELVATMDWRGSSTYYADSVKGRFTISRDNAKNTVYLQINCLKPVDTAVYYCAARLARGSYAYEYWGHGTQVTVSS”, the “polyreactivity (PSR sort gate)” value was “low polyreactivity”.
With “QVQLVESGGGLDQAGGSLPLSCAASGFTFGHYAMGWYRQAPGKERELVAAISSGDRTYYADSVKGRFTISRDNAKNTVYLQMNSLKPEDTAVYYCAADGIYTYEYWGQGTQVTVSS” the “polyreactivity (PSR sort gate)” value was “low polyreactivity”.
For “QVQLVESGGGLVQAGGSLRLSCAASGSILGGNAMGWYRQAPGKEWELVAAITFSGGGTYYADSVKGRFTSSRDNAKNTVYLQMNSLKPEDTAVYYCAADKDGYTYEFDYWGQGTQVTVSS”, the “polyreactivity (PSR sort gate)” value was “low polyreactivity”.
In the case of “QVQLVESGGGLVQAGGSLRLSCAASGYTFGANVMGWYRQAPGKERELVAAINTRGSRTYYADSVNGRFTISRDNAKNTVYLQMNSLKPEDTAVYYCAAALRKEYDYWGQGTQVTVSS”, the “polyreactivity (PSR sort gate)” value is reported as “high polyreactivity”.
In the case of “QVQLVESGGGLVQAGGSLRLSCAASGRTFKHYAMGWYRQAPGKERELVAAITSGGSTYYADSVKGRFTISRDNAKNTVYLLMNSLIPEDTAVYYCNKESYFDTYRRYDSWGHGTQVTVSS”, the “polyreactivity (PSR sort gate)” value is reported as “low polyreactivity”.
In the case of “QVQLVESGGGLVQAGGSLRLSCAASGRIFRYYVMGWYRQAPGKERELVAAITSGTSTNYADSVKGRFTISRDNAKNTVYLQMNSLKPEDTAVYYCAFRSPRGGRTRFNSNYWGQGTQVTVSS”, the “polyreactivity (PSR sort gate)” value is reported as “high polyreactivity”.
With “QVQLVESGGGLVQAGGSLRLSCAASGSTFQYYAMGWYRQAPGKERELVAAISSSGGSTYYADSVKGRFTISRDYAKNTVYFQMNSQKPEDTAVYYCAKRFRRFTYTRDYWGQGTQVTVTS” the “polyreactivity (PSR sort gate)” value was “high polyreactivity”.
In the case of “QVQLVESGGGLVQAGGSLRLSCAASGFTFIRYAMGWYRQAPGKEREVVAAISWRVGITYYADSVKGRFTISRDNAKNTVYLQMNSQKPEDTAVYYCARDYRNPPFAYEYWGQGTQVTVSS”, the “polyreactivity (PSR sort gate)” value is reported as “low polyreactivity”.
With “QVQLVESGGGLVQAGGSLRLSCAASGSTFQYNAMGWYRQAPGKERELVAVITRRGGRTYYADSVKGRFTISRDNAKNTVYLQMNSLKPEDTAVYYCAAYYDYTHRFYYWGQGTQVTVSS” the “polyreactivity (PSR sort gate)” value was “high polyreactivity”.
